Source: paper PMC7475178, “Dynamic regulation of anthocyanin biosynthesis at different light intensities by the BT2-TCP46-MYB1 module in apple”

Target: T1, MdMYB1-HIS (Malus domestica, UniProt M1UZJ0 1-243)
T1 sequence: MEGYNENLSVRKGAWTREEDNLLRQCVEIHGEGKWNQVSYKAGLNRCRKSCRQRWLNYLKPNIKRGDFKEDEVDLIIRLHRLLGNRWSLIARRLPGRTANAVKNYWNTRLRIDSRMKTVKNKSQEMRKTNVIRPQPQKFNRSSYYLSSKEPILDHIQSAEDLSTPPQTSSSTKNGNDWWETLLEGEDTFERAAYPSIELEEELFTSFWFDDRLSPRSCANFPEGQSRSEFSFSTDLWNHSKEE
Experiment: EMSA; Proteins and biotin probes mixed in binding buffer for 25 min, acrylamide gel; buffer, salt, pH and temperature not stated
Conditions: protein: recombinant; tags: His (pET32a); label: biotin; blunt

B1: MdDFR-Probe (dsDNA)
DNA 1: CGTGCGTCAACCGTTAGGAAAGCACG
DNA 2: CGTGCTTTCCTAACGGTTGACGCACG
Q: Does B1 bind?
A: binds

B2: MdUF3GT-Probe (dsDNA)
DNA 1: ACCTTCCCGTCAGTTATTGCAGGTGG
DNA 2: CCACCTGCAATAACTGACGGGAAGGT
Q: Does B2 bind?
A: binds
